Laboratory results from patent US6706266, “Oncostatin M antagonists” (SmithKline Beecham Corporation).
Where a chain is given by its changes, count along the chain named. In names and notes the source's numbering stands. Several values for one entry are separate records, joined by “and”; a condition that tells them apart may be missing. Equal values may be shown once.

T1: oncostatin M (hOSM, mature) (Homo sapiens) (UniProt P13725)
T1 sequence: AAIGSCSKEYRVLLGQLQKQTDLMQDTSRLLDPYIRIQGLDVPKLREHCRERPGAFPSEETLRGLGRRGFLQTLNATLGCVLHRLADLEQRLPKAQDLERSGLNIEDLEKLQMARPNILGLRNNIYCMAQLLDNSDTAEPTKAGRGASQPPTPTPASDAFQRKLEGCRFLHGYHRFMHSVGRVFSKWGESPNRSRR

T2: gp130 on HepG2 B6 cells (UniProt P40189 23-918, limits assumed)
T2 sequence (looked up): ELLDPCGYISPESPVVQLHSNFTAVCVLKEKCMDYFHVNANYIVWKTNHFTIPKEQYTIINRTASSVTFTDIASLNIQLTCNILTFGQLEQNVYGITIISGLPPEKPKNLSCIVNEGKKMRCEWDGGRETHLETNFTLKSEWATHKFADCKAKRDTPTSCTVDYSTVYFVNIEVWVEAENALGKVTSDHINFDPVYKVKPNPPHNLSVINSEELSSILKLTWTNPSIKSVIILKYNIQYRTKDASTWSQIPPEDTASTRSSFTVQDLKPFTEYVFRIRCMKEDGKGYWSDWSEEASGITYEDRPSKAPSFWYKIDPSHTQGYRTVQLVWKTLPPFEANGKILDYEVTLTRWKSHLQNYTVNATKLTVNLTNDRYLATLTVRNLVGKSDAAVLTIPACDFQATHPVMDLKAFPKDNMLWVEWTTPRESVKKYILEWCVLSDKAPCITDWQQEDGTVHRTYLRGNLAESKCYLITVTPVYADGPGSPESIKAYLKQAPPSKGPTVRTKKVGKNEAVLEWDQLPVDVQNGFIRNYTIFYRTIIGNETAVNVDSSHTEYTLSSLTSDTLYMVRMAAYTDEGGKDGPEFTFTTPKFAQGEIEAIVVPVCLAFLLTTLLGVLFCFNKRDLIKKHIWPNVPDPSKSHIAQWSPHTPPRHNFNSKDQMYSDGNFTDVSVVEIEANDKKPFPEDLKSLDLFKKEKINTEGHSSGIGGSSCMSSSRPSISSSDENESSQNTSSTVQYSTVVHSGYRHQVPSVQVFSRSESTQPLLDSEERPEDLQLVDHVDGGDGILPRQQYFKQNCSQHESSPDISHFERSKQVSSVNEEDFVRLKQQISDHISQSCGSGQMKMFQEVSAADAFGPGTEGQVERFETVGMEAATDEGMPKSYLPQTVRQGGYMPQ

T3: oncostatin M (hOSM, mature) (Homo sapiens, UniProt P13725 SEQ:26-221)
T3 sequence: T1 sequence

T4: gp130-Fc fusion protein (human, UniProt P40189 23-619)
T4 construct: extracellular domain; not shown: Fc fragment of human IgG1
T4 sequence (looked up): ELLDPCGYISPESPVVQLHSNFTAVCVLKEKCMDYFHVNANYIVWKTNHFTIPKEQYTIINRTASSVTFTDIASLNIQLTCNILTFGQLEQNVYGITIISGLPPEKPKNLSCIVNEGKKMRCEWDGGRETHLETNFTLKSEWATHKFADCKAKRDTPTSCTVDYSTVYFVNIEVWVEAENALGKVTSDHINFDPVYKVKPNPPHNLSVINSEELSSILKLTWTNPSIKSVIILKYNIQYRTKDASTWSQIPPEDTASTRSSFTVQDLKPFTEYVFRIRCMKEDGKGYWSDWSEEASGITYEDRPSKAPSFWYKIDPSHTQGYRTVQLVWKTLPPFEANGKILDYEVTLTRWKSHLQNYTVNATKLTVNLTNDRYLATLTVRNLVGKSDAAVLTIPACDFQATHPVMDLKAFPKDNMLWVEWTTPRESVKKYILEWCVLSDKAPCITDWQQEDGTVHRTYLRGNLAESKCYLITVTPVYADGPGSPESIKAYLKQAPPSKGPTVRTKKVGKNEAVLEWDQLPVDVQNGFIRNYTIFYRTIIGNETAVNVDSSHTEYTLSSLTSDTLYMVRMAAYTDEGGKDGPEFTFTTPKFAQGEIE

B1: OSM-GST mutant P116A (ligand, not shown: a dimerising Fc or GST; large carriers; small tags and cut ends)
chain: T1 sequence with P116A
notes: Alanine mutant of m4; also called (17)P116A; 17 P116A
B2: OSM-GST mutant Q18A (ligand)
chain: T1 sequence with Q18A
notes: Alanine mutant of m4; also called (11)Q18A; 11 Q18A; not shown: Its linker is left out
B3: OSM-GST mutant Q25A (ligand, not shown: a dimerising Fc or GST; large carriers; small tags and cut ends)
chain: T1 sequence with Q25A
notes: Alanine mutant of m4; also called (26)Q25A; 26 Q25A
B4: OSM-GST mutant Q130A (ligand, not shown: a dimerising Fc or GST; large carriers; small tags and cut ends)
chain: T1 sequence with Q130A
notes: Alanine mutant of m4; also called (25)Y130A; 25 Q130A
B5: OSM-GST mutant R11A (ligand, not shown: a dimerising Fc or GST; large carriers; small tags and cut ends)
chain: T1 sequence with R11A
notes: Alanine mutant of m4; also called (5)R11A; 5 R11A
B6: OSM-GST mutant R122A (ligand, not shown: a dimerising Fc or GST; large carriers; small tags and cut ends)
chain: T1 sequence with R122A
notes: Alanine mutant of m4; also called (21)R122A; 21 R122A
B7: OSM-GST mutant S7A (ligand, not shown: a dimerising Fc or GST; large carriers; small tags and cut ends)
chain: T1 sequence with S7A
notes: Alanine mutant of m4; also called (1)S7A; 1 S7A
B8: OSM-GST mutant T21A (ligand, not shown: a dimerising Fc or GST; large carriers; small tags and cut ends)
chain: T1 sequence with T21A
notes: Alanine mutant of m4; also called (14)T21A; 14 T21A
B9: OSM-GST mutant Y10A (ligand, not shown: a dimerising Fc or GST; large carriers; small tags and cut ends)
chain: T1 sequence with Y10A
notes: Alanine mutant of m4; also called (4)Y10A; 4 Y10A
B10: OSM-GST mutant Y126A (ligand, not shown: a dimerising Fc or GST; large carriers; small tags and cut ends)
chain: T1 sequence with Y126A
notes: Alanine mutant of m4; also called (24)Y126A; 24 Y126A
B11: ADR147 (aptamer raised to CD95 ligand) (ssRNA)
RNA: GGGAGGACGAUGCGGUUAUACUAAGCUGCGGUUAGCGACAGCCCUCCCUAGCGCCUCAGACGACUCGCCCGA
modifications: 2'-F pyrimidines

These molecules were tested against T1, oncostatin M (hOSM, mature) (Homo sapiens) (assay: filter). Settings: 2'-F pyrimidines; no affinity at any concentration tested.

Row | Molecule | Kd [µM]
1 | GGGAGGACGAUGCGGNNNNNNNNNNNNNNNNNNNNNNNNNNNNNNNNNNNNNNNNCCGCAUCGUCCUCCC [40N7 starting random RNA pool] | > 10

What follows are molecules tested against T2, gp130 on HepG2 B6 cells (assay: cell-based or functional assay). Settings: not given.

Row | Molecule | sPAP HepG2 B6 assay: Expt 1 % (EC50 as % of wild type EC50) [%] | sPAP HepG2 B6 assay: Expt 1 EC50 [µg/mL] | sPAP HepG2 B6 assay: Expt 2 % (EC50 as % of wild type EC50) [%] | sPAP HepG2 B6 assay: Expt 2 EC50 [µg/mL] | sPAP HepG2 B6 assay: Mean % of wild type EC50 [%] | sPAP HepG2 B6 assay: Expt 3 % (EC50 as % of wild type EC50) [%] | sPAP HepG2 B6 assay: Expt 3 EC50 [µg/mL]
2 | B1 | 104 | 0.025 | 47 | 0.015 | 75.5 | – | –
3 | B2 | 84 | 0.0202 | 68 | 0.0217 | 76 | – | –
4 | B3 | 55 | 0.0133 | 41 | 0.013 | 48 | – | –
5 | B4 | 52 | 0.0125 | 26 | 0.0082 | 39 | – | –
6 | B5 | 118 | 0.0286 | 86 | 0.0277 | 102 | – | –
7 | B6 | 135 | 0.0324 | 43 | 0.0138 | 101 | 124 | 0.0473
8 | B7 | 50 | 0.012 | 69 | 0.0222 | 59.5 | – | –
9 | B8 | 71 | 0.017 | 33 | 0.0105 | 52 | – | –
10 | B9 | 134 | 0.0324 | 256 | 0.082 | 195 | – | –
11 | B10 | 386 | 0.093 | 32 | 0.0103 | 175 | 106 | 0.0408

Each molecule was assayed against T3, oncostatin M (hOSM, mature) (assay: competition; little activity in OSM/gp130 ELISA). Settings: tags: expressed in E. coli as GST fusion, GST removed by thrombin cleavage.
Description: Effect of Point Mutations on the Ability of OSM-GST to Compete with Wild Type OSM Binding to gp130-Fc in an ELISA Nunc Immunoplates (F6 Maxisorp, Life Technologies) were coated overnight (4° C.) with wild type OSM (produced according to Example 7a); 50 µl/well, 1 µg/ml in carbonate/bicarbonate buffer pH 9.4). Plates were washed (×6 in PBS 0.05% tween 20, using Skatron Plate washer), tapped dry and blocked to reduce non-specific binding (200 µl/well, 1% BSA/PBS). Following 1 h incubation (room temperature on a shaking platform) the plates were tapped dry and wild type (wt) or mutant OSM-GST from Example 9b added (50 µl/well, 20–0.002 µg/ml, titrated in 1%BSA/PBS). As a positive control polyclonal anti-human OSM antibody (R&D Systems) was also tested (20–0.02 µg/ml). […] Following a 5 h incubation (room temperature on a shaking platform) the plates were washed (×6) and developed using ELISA Amplification System (Life Technologies) as manufacturer's instructions and the OD measured at 490 nm. On each plate the total binding was determined by gp130-Fc/conjugate and OSM in the presence of 1%BSA/PBS, and non-specific binding by gp130-Fc/conjugate in absence of OSM, or conjugate binding to OSM in absence of gp130-Fc. […]

Row | Molecule | binding result
12 | B11 | no binding

The molecules below were run against T4, gp130-Fc fusion protein (assay: competition ELISA: OSM-GST titrated against plate-bound wt OSM for gp130-Fc; mean). Settings: not given.
Description: (§1) Plates were washed (×6 in PBS 0.05% tween 20, using Skatron Plate washer), tapped dry and blocked to reduce non-specific binding (200 µl/well, 1% BSA/PBS). Following 1 h incubation (room temperature on a shaking platform) the plates were tapped dry and wild type (wt) or mutant OSM-GST from Example 9b added (50 µl/well, 20–0.002 µg/ml, titrated in 1%BSA/PBS). As a positive control polyclonal anti-human OSM antibody (R&D Systems) was also tested (20–0.02 µg/ml). […] Following a 5 h incubation (room temperature on a shaking platform) the plates were washed (×6) and developed using ELISA Amplification System (Life Technologies) as manufacturer's instructions and the OD measured at 490 nm.

Row | Molecule | IC50 [µg/mL]
13 | B1 | 0.199
14 | B2 | 0.395
15 | B3 | 0.044
16 | B4 | 0.14
17 | B5 | 0.239
18 | B6 | 0.176
19 | B7 | 0.133
20 | B8 | 0.084
21 | B9 | 0.223
22 | B10 | 0.382

The molecules below were run against T4, gp130-Fc fusion protein (assay: competition ELISA: OSM-GST titrated against plate-bound wt OSM for gp130-Fc; single experiment). Settings: not given.
Description: as §1

Row | Molecule | IC50
23 | B1 | 0.232 µg/mL and 0.169 µg/mL and 0.197 µg/mL
24 | B2 | 0.32 µg/mL and 0.31 µg/mL and 0.555 µg/mL
25 | B3 | 0.042 µg/mL and 0.036 µg/mL and 0.055 µg/mL
26 | B4 | 0.145 µg/mL and 0.18 µg/mL and 0.094 µg/mL
27 | B5 | 0.181 µg/mL and 0.255 µg/mL and 0.28 µg/mL
28 | B6 | 0.14 µg/mL and 0.22 µg/mL and 0.167 µg/mL
29 | B7 | 0.199 µg/mL and 0.078 µg/mL and 0.121 µg/mL
30 | B8 | 0.108 µg/mL and 0.044 µg/mL and 0.101 µg/mL
31 | B9 | 0.32 µg/mL and 0.18 µg/mL and 0.168 µg/mL
32 | B10 | 0.386 µg/mL and 0.359 µg/mL and 0.4 µg/mL
